From patent publication US20050260595A1 come the findings set out here.

Test [1] addresses human adenosine A2a receptor protein (human) (UniProt P29274). Description: cell-based or functional assay.
The target in test [2] is human dopamine D1 receptor protein (human) (UniProt P21728). Description: cell-based or functional assay.
Sequence of human dopamine D1 receptor protein (human) (P21728 whole entry): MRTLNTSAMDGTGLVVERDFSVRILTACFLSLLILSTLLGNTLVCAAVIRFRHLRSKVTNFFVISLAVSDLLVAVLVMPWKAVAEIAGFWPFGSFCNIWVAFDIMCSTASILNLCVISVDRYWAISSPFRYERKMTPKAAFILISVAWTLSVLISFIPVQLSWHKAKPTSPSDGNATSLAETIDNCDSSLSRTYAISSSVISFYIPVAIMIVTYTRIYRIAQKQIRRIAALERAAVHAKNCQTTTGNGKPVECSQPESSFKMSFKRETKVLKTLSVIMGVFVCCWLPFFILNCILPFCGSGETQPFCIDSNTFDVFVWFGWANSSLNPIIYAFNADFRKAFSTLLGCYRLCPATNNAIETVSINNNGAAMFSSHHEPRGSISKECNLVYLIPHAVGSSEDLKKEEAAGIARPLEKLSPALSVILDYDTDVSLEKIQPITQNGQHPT

Sequence of human adenosine A2a receptor protein (human) (P29274 whole entry): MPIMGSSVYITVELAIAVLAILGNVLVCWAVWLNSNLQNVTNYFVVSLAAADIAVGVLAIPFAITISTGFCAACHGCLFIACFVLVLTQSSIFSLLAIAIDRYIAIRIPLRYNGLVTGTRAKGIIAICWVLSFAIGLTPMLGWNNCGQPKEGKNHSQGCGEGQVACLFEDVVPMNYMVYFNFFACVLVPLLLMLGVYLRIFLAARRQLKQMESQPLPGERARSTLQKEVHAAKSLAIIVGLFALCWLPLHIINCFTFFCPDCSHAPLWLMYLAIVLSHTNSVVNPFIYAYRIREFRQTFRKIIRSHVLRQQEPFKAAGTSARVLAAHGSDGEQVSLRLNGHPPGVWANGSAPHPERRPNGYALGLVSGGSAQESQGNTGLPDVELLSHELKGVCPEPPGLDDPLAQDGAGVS

Consider human Gm1 protein, for which the cAMP level (HitHunter ECF cyclic AMP chemiluminescent assay; CHO cells co-expressing Gm1 and adenosine A2a receptor, 10 µM adenosine; cells expressing only the A2a receptor = 100%, no contact = 0%) in test [1] amounted to 134%. Besides, in test [2], the cAMP level (HitHunter ECF cyclic AMP chemiluminescent assay; CHO cells co-expressing Gm1 and dopamine D1 receptor, 10 µM dopamine; cells expressing only the D1 receptor = 100%, no contact = 0%) worked out at 127%.
